Data taken from patent US20190248902A1 (published 2019).

T1: soluble human ASGR-1 carbohydrate binding domain (CBD; amino acid residues 154-281; N-terminal 6xHis tag) (human, UniProt P07306 154-281)
T1 construct: also called ASGR-1 CBD
T1 sequence: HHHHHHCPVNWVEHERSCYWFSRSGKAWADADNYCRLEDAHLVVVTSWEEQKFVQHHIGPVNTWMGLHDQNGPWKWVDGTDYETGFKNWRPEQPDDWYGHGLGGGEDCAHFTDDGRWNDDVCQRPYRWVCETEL

T2: human ASGR-1 mutant construct H203 (human, UniProt P07306 1-291)
T2 construct: Arg/Glu scanning: non-arginine residues were changed to arginine; Transiently expressed on CHO-S cells
T2 sequence: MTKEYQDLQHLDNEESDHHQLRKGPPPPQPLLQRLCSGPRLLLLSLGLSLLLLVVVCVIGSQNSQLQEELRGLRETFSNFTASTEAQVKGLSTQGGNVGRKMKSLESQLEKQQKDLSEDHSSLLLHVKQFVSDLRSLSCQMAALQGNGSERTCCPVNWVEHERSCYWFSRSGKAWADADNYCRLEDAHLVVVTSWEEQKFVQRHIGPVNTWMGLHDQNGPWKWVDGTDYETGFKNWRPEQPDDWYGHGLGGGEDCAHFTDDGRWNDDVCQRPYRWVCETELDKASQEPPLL

B1: 194C10 (antibody, V domains shown)
VH: QVQLQQWGAGLLKPSETLSLTCAVSGGSFRYYYWSWIRQPPGKGLEWFGEINHSGSTNYNPSLKSRVTISIDTSKNQFSLKLRSVTAADTAVYYCARDYGAFDIWGQGTMVTVSS
VL: EIVLTQSPGTLSLSPGERATLSCRASPSVNSGYLAWYQQKPGQTPRLLIFGASSRATGIPDRFSASGSGADFTLTISRLEPEDFAVYFCQQYESSPWTFGQGTKVEIK
notes: mAb
B2: 193E7 (antibody, V domains shown)
VH: QVQLQQWGAGLLKPSETLSLTCAVYGGSFSGYFWTWIRQPPGKGLEWIGEINHSGSTNYNPSLKSRVTISVDTSKNQFSLKLSSVTAADTAVYYCARDYGADYWGQGTLVAVSA
VL: DIQMTQSPSSLSASVGDRVTITCRASQGIRNDLGWYQQKPGKAPKRLIYSASSLQRGVPSRFSGSGSGTEFTLTISSLQPEDFATYYCLQHKRYPLTFGGGTKVEIK
notes: mAb
B3: 75G3 (antibody, V domains shown)
VH: QVQLQQWGAGLLKPSETLSLTCAVYGGSLSGSYWSWIRQPPGKGLEWIGEINLSGSTNYNPSLKSRVTISVDTSKSQFSLTLRSVTAADTAVYYCARDYGGLDYWGQGTLVTVSS
VL: EIVLTQSPGTLSLSPGERATLSCRARQNVDSSYLAWYQQKPGQAPRLLIYGASSRATGIPDRFSGSGSGTDFTLTISRLEPEDFAVFYCQQYERSPWTFGQGTKVEIK
notes: mAb

target: T1, soluble human ASGR-1 carbohydrate …; assay: Octet BLI, mAb on AR2G tips, 1:1 fit

Kd [nM] | Binder
4 | B1
3.5 | B2
1 | B3

target: T2, human ASGR-1 mutant construct H203; assay: FACS, transfected CHO-S cells, mAb 5 ug/ml
How it was run: (§1)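 Transiently transfected CHO-S cells expressing wild-type or mutant hASGR-1 incubated with antibody at 5 ug/ml, 1 h at 4 °C; bound antibody detected by Alexa Fluor 647 anti-Fc plus 7-AAD, by flow cytometry. Binding normalized to expression using an unaffected antibody (65C12), then to wild type; hits defined as >3× IQR above third quartile.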

FACS Binding Geomean | Binder
13200 | B1
13800 | B2
14500 | B3

target: T2, human ASGR-1 mutant construct H203; assay: FACS ratio: H203 normalized value / wt normalized value
How it was run: as §1

Normalization to wt ASGR1 Binding | Binder
0.978 | B1
1.18 | B2
1.18 | B3
